Laboratory results: article PMC4026020
Changes are numbered by the printed parent chain.

What was measured:
Assay in all cases: fluorescence anisotropy
[1] = target: T1, MBP-AtTZF1 RR-TZF C136R/C171R (Arabidopsis thaliana, UniProt O82307 86-195, C136R;C171R)
T1 sequence: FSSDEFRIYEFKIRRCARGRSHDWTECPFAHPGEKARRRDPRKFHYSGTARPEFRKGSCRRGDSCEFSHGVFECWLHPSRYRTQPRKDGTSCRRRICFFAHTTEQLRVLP

[2] = target: T2, MBP-AtTZF1 RR;MBP-AtTZF1 TZF (Arabidopsis thaliana;Arabidopsis …, UniProt O82307;O82307 86-128;129-195, |)
T2 sequence 1: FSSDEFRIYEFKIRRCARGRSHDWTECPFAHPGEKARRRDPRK
T2 sequence 2: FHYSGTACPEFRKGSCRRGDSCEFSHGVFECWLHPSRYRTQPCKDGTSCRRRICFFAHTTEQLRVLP

[3] = target: T3, MBP-AtTZF1 RR-TZF C101R (Arabidopsis thaliana, UniProt O82307 86-195, C101R)
T3 sequence: T1 sequence with C16R, R51C, R86C

[4] = target: T4, MBP-AtTZF1 RR-TZF C101R/C136R/C171R (Arabidopsis thaliana, UniProt O82307 86-195, C101R;C136R;C171R)
T4 sequence: T1 sequence with C16R

B1: Fl-ARE19 (ssRNA)
RNA: UAUUUAUUAUUUAUUUAUU
**Q.** Which results are given for B1?
**A.** Kd [1]: 1540 ± 50 nM; Kd [2]: 610 ± 40 nM

B2: Fl-polyU (ssRNA)
RNA: UUUUUUUUUUUUUUUUUUU
**Q.** For B2, which Kd [3] is on record?
**A.** 810 ± 40 nM

**Q.** What about the Kd [1] of the same binder?
**A.** 1610 ± 40 nM

**Q.** What about the Kd [4] of the same binder?
**A.** 3110 ± 80 nM

**Q.** What about the Kd [2] of the same binder?
**A.** 4400 ± 100 nM
